Here are results for ten molecules from US20020102606A1 (published 2002).

Common to all, as to assay: yeast two-hybrid; prey clone found with the bait of the row
In experiment [1] the target is T1, MAPKAP-K3 NUC 433-1003 (bait) (UniProt Q16644 114-304).
T1 construct: range 114-304; also called MAP Kinase MAPKAP-K3
The source says: (§1) A total human brain (person) cDNA library cloned into the yeast expression vector pACT2 was purchased from Clontech (human brain […] cDNA, cat. # HL4004AH), transformed into the yeast strain J692 (genotype of this strain: Mat a, ade2, his3, leu2, trp1, URA3::GAL1-lacZ LYS2::GAL1-HIS3 ga14del ga180del cyhR2), and selected for the ability to drive leucine synthesis. In these yeast cells, each cDNA is expressed as a fusion protein with the transcription activation domain of the transcription factor Ga14 (amino acids 768 to 881) and a 9 amino acid hemagglutinin epitope tag. J693 cells (Mat α type) expressing the bait were then mated with J692 cells (Mat a type) expressing proteins from the brain library. The resulting diploid yeast cells expressing proteins interacting with the bait protein were selected for the ability to synthesize tryptophan, leucine, histidine, and β-galactosidase. DNA was prepared from each clone, transformed by electroporation into E. coli strain KC8 (Clontech KC8 electrocompetent cells, cat. # C2023-1), and the cells were selected on ampicillin-containing plates in the absence of either tryptophane (selection for the bait plasmid) or leucine (selection for the brain library plasmid). DNA for both plasmids was prepared and sequenced by di-deoxynucleotide chain termination method. The identity of the bait cDNA insert was confirmed and the cDNA insert from the brain library plasmid was identified using BLAST program against public nucleotides and protein databases. Plasmids from the brain library (preys) were then individually transformed into yeast cells together with a plasmid driving the synthesis of lamin fused to the Ga14 DNA binding domain. Clones that gave a positive signal after β-galactosidase assay were considered false-positives and discarded. Plasmids for the remaining clones were transformed into yeast cells together with plasmid for the original bait. Clones that gave a positive signal after β-galactosidase assay were considered true positives.
(§2) The “AA” refers to the amino acids of the bait or prey. The “NUC” refers to the nucleotides of the bait or prey.

The target in experiment [2] is T2, PRAK NUC 201-1104 K51M, T182D (bait) (UniProt Q8IW41 1-301).
T2 construct: Limits printed as nucleotides only; also called Protein Kinase PRAK
T2 sequence (looked up): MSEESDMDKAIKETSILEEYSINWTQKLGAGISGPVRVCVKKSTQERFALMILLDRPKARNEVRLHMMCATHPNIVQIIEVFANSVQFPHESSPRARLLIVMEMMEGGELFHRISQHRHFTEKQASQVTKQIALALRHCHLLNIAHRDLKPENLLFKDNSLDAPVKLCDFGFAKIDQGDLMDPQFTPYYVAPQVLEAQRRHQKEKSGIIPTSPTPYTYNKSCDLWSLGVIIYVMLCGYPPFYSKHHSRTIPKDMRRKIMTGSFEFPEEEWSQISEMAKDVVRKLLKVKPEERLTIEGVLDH
Text: as §1, §2

Experiment [3] has as its target T3, PRAK NUC 201-1104 (bait, no mutation) (UniProt Q8IW41 1-301).
T3 construct: Limits printed as nucleotides only; also called Protein Kinase PRAK
T3 sequence (looked up): T2 sequence (looked up) with M51K, D182T
Text: as §1, §2

Experiment [4] addresses T4, PRAK NUC 201-1104 K51M (bait) (UniProt Q8IW41 1-301).
T4 construct: Limits printed as nucleotides only; also called Protein Kinase PRAK
T4 sequence (looked up): T2 sequence (looked up) with D182T
Text: as §1, §2

The target of experiment [5] is T5, Profilin II amino acids 4-91 (prey) (human, UniProt P35080 4-91).
T5 construct: range 4-91
T5 sequence (looked up): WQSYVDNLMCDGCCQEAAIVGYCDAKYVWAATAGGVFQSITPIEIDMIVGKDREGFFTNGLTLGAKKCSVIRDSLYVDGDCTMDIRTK
Text: as §1, §2

The target in experiment [6] is T6, p38 gamma amino acids 29-368 (bait) (UniProt P53778 29-367).
T6 construct: range 29-368; also called Protein Kinase p38 gamma; p38 gamma kinase
T6 sequence (looked up): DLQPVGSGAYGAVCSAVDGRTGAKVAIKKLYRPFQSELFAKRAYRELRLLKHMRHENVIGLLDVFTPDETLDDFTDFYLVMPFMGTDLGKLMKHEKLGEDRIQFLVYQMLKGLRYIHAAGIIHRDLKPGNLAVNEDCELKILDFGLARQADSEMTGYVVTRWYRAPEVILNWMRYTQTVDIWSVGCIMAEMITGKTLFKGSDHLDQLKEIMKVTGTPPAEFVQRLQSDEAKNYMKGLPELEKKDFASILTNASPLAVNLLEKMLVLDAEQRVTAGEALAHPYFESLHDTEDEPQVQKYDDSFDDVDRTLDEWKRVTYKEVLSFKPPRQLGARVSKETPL
Text: as §1, §2

Changes are numbered by the printed parent chain.

T1 sequence (Q16644 114-304 limits assumed): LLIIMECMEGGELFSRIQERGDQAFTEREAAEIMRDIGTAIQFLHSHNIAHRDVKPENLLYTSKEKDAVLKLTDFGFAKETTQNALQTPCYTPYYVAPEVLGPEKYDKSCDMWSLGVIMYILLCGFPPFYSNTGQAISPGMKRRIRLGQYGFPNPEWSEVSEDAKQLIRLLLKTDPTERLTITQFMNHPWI

B1: Nuclear Mitotic Apparatus Protein 1 (NuMA1) NUC 1395-1713 (prey) (other, human, UniProt Q14980 413-519, looked up)
chain: LQLETLKQEAATLAANNTQLQARVEMLETERGQQEAKLLAERGHFEEEKQQLSSLITDLQSSISNLSQAKEELEQASQAHGARLTAQVASLTSELTTLNATIQQQDQ
notes: range 413-519
Regarding B1, the binding result in experiment [1] is given as “binds”.

B2: Nuclear Mitotic Apparatus Protein 1 (NuMA1) NUC 1394-1711 (prey) (other, human, UniProt Q14980 413-519, looked up)
chain: B1 chain
notes: Limits printed as nucleotides only
In the case of B2, the binding result in experiment [2] is listed as “binds”.

B3: Histone Acetyl Transferase 1 (HAT1) amino acids 334-420 (prey) (enzyme, human, UniProt O14929 334-419, looked up)
chain: ILRLLVTDMSDAEQYRSYRLDIKRRLISPYKKKQRDLAKMRKCLRPEELTNQMNQIEISMQHEQLEESFQELVEDYRRVIERLAQE
notes: range 334-420
For B3, the binding result in experiment [2] is recorded as “binds”.

B4: MLK2 amino acids 398-556 (prey) (enzyme, human, UniProt Q02779 398-556, looked up)
chain: LRSREEELLRAAQEQRFQEEQLRRREQELAEREMDIVERELHLLMCQLSQEKPRVRKRKGNFKRSRLLKLREGGSHISLPSGFEHKITVQASPTLDKRKGSDGASPPASPSIIPRLRAIRLTPVDCGGSSSGSSSGGSGTWSRGGPPKKEELVGGKKKG
notes: range 398-556; also called mixed lineage kinase
Take B4: the binding result in experiment [3] and in experiment [4] was “binds” in each case.

B5: Vimentin amino acids 309-463 (prey) (other, human, UniProt P08670 309-463, looked up)
chain: LRQAKQESTEYRRQVQSLTCEVDALKGTNESLERQMREMEENFAVEAANYQDTIGRLQDEIQNMKEEMARHLREYQDLLNVKMALDIEIATYRKLLEGEESRISLPLPNFSSLNLRETNLDSLPLVDTHSKRTLLIKTVETRDGQVINETSQHHD
notes: range 309-463
For B5, in experiment [1], the binding result is listed as “binds”.

B6: ERF-2 amino acids 7-192 (prey) (other, human, UniProt P47974 7-192, looked up)
chain: SAFYDVDFLCKTEKSLANLNLNNMLDKKAVGTPVAAAPSSGFAPGFLRRHSASNLHALAHPAPSPGSCSPKFPGAANGSSCGSAAAGGPTSYGTLKEPSGGGGTALLNKENKFRDRSFSENGDRSQHLLHLQQQQKGGGGSQINSTRYKTELCRPFEESGTCKYGEKCQFAHGFHELRSLTRHPKY
notes: range 7-192; also called TIS11D
With B6, the binding result in experiment [1] is listed as “binds”.

B7: TIAR amino acids 1-48 (bait) (other)
chain: MMEDDGQPRTLYVGNLSRDVTEVLILQLFSQIGPCKSCKMITEHTSND
Turning to B7, in experiment [5], the binding result is listed as “binds”.

B8: Homer-3 NUC 774-1152 (prey) (other, human, UniProt Q9NSC5 228-354, looked up)
chain: RQRVAELEAQAASEVTPTGEKEGLGQGQSLEQLEALVQTKDQEIQTLKSQTGGPREALEAAEREETQQKVQDLETRNAELEHQLRAMERSLEEARAERERARAEVGRAAQLLDVSLFELSELREGLA
notes: as for B2
As for B8, in experiment [2], the binding result is “binds”.

B9: Homer-3 NUC 720-1152 (prey) (other, human, UniProt Q9NSC5 210-354, looked up)
chain: AAQWRQQLEAQRAEAERLRQRVAELEAQAASEVTPTGEKEGLGQGQSLEQLEALVQTKDQEIQTLKSQTGGPREALEAAEREETQQKVQDLETRNAELEHQLRAMERSLEEARAERERARAEVGRAAQLLDVSLFELSELREGLA
In the case of B9, the binding result in experiment [1] was “binds”.

B10: DLG2 amino acids 294-594 (prey) (other, human, UniProt Q15700 294-594, looked up)
chain: THSYSPPMENHLLSGNNGTLEYKTSLPPISPGRYSPIPKHMLVDDDYTRPPEPVYSTVNKLCDKPASPRHYSPVECDKSFLLSAPYSHYHLGLLPDSEMTSHSQHSTATRQPSMTLQRAVSLEGEPRKVVLHKGSTGLGFNIVGGEDGEGIFVSFILAGGPADLSGELQRGDQILSVNGIDLRGASHEQAAAALKGAGQTVTIIAQYQPEDYARFEAKIHDLREQMMNHSMSSGSGSLRTNQKRSLYVRAMFDYDKSKDSGLPSQGLSFKYGDILHVINASDDEWWQARRVMLEGDSEEMG
notes: range 294-594; also called chapsyn-110
Turning to B10, in experiment [6], the binding result was “binds”.
